Laboratory results: PMC5342261

Tests used:
[1] = biological target: PGV04; assay: yeast display
[2] = biological target: B12; assay: yeast display
[3] = biological target: VRC01; assay: yeast display
[4] = biological target: B6; assay: yeast display
[5] = biological target: HJ16; assay: ELISA
[6] = biological target: CH98; assay: ELISA
[7] = biological target: VRC01; assay: ELISA

“B.YU2gp120 core (ΔV1, V2, V3 loops) K282V” showed a percent of parent [1] of 74%, a percent of parent [2] of 51% and a percent of parent [3] of 50%. For the same substance, the percent of parent [4] was 61%.

Substance “B.YU2gp120 core (ΔV1, V2, V3 loops) R403V” has a percent of parent [1] of 94%, a percent of parent [2] of 76% and a percent of parent [3] of 99%. The percent of parent [4] was 96%.

Substance “B.YU2gp120 core (ΔV1, V2, V3 loops) Q442V” has a percent of parent [1] of 92%, a percent of parent [2] of 72% and a percent of parent [3] of 97%. It also gave a percent of parent [4] of 95%.

Work on “B.YU2gp120 core (ΔV1, V2, V3 loops) T278K” yielded a percent of parent [1] of 122%, a percent of parent [2] of 89% and a percent of parent [3] of 196%. For the same substance, the percent of parent [4] was 98%.

With AE.A244gp120 I371del; P363N the percent of parent [5] was 80% and the percent of parent [6] was 0%.

For “B.YU2gp120 core (ΔV1, V2, V3 loops) G434K”, the percent of parent [1] was 85%, the percent of parent [2] was 76% and the percent of parent [3] was 85%. The percent of parent [4] was 85%.

Substance “B.YU2gp120 core (ΔV1, V2, V3 loops) D368R” has a percent of parent [1] of 7%, a percent of parent [3] of 13% and a percent of parent [4] of 53%.

Substance AE.A244gp120 N276A has a percent of parent [6] of 0% and a percent of parent [7] of 51%.

“B.YU2gp120 core (ΔV1, V2, V3 loops) Q337V” was tested, and the percent of parent [1] was 89%, the percent of parent [2] was 88% and the percent of parent [3] was 91%. The percent of parent [4] was 87%.

Substance “B.YU2gp120 core (ΔV1, V2, V3 loops) V200K” has a percent of parent [1] of 96%, a percent of parent [2] of 94% and a percent of parent [3] of 99%. The percent of parent [4] was 90%.

“B.YU2gp120 core (ΔV1, V2, V3 loops) G327R” gave a percent of parent [1] of 89%, a percent of parent [2] of 90% and a percent of parent [3] of 95%. For the same substance, the percent of parent [4] was 95%.

With AE.A244gp120 D368R the percent of parent [5] was 98%, the percent of parent [6] was 0% and the percent of parent [7] was 23%.

For “B.YU2gp120 core (ΔV1, V2, V3 loops) T455E”, the percent of parent [1] was 31%, the percent of parent [2] was 14% and the percent of parent [3] was 49%. The percent of parent [4] was 92%.

“B.YU2gp120 core (ΔV1, V2, V3 loops) R412V” gave a percent of parent [1] of 100%, a percent of parent [2] of 87% and a percent of parent [3] of 104%. For the same substance, the percent of parent [4] was 99%.

In the case of “B.YU2gp120 core (ΔV1, V2, V3 loops) K121T”, the percent of parent [1] was 73%, the percent of parent [2] was 100% and the percent of parent [3] was 80%. For the same substance, the percent of parent [4] was 102%.

“B.YU2gp120 core (ΔV1, V2, V3 loops) R419G” gave a percent of parent [1] of 65%, a percent of parent [2] of 13% and a percent of parent [4] of 98%.

“B.YU2gp120 core (ΔV1, V2, V3 loops) L265R” was tested, and the percent of parent [1] was 79%, the percent of parent [2] was 91% and the percent of parent [3] was 88%. It also gave a percent of parent [4] of 85%.

“B.YU2gp120 core (ΔV1, V2, V3 loops) T240K” was tested, and the percent of parent [1] was 88%, the percent of parent [2] was 101% and the percent of parent [3] was 92%. The percent of parent [4] was 95%.

With “B.YU2gp120 core (ΔV1, V2, V3 loops) S446K” the percent of parent [1] was 104%, the percent of parent [2] was 113% and the percent of parent [3] was 108%. It also gave a percent of parent [4] of 100%.

In the case of “B.YU2gp120 core (ΔV1, V2, V3 loops) N197K”, the percent of parent [1] was 86%, the percent of parent [2] was 89% and the percent of parent [3] was 86%. The percent of parent [4] was 93%.

With “B.YU2gp120 core (ΔV1, V2, V3 loops) G473R” the percent of parent [1] was 17%, the percent of parent [2] was 113% and the percent of parent [3] was 19%. It also gave a percent of parent [4] of 78%.

“B.YU2gp120 core (ΔV1, V2, V3 loops) S365K” showed a percent of parent [1] of 8%, a percent of parent [2] of 28% and a percent of parent [3] of 31%. It also gave a percent of parent [4] of 97%.

With “B.YU2gp120 core (ΔV1, V2, V3 loops) K490S” the percent of parent [2] was 89% and the percent of parent [3] was 75%.

“B.YU2gp120 core (ΔV1, V2, V3 loops) I467K” showed a percent of parent [1] of 43%, a percent of parent [2] of 51% and a percent of parent [3] of 48%. The percent of parent [4] was 93%.

Work on “B.YU2gp120 core (ΔV1, V2, V3 loops) Q344V” yielded a percent of parent [1] of 79%, a percent of parent [2] of 94% and a percent of parent [3] of 82%. For the same substance, the percent of parent [4] was 96%.

“B.YU2gp120 core (ΔV1, V2, V3 loops) K231T” showed a percent of parent [2] of 98%, a percent of parent [3] of 74% and a percent of parent [4] of 94%.

With AE.A244gp120 T278A the percent of parent [5] was 13%, the percent of parent [6] was 19% and the percent of parent [7] was 96%.

Work on “B.YU2gp120 core (ΔV1, V2, V3 loops) G459E” yielded a percent of parent [1] of 8%, a percent of parent [2] of 105% and a percent of parent [3] of 28%. The percent of parent [4] was 99%.

With “B.YU2gp120 core (ΔV1, V2, V3 loops) R476V” the percent of parent [1] was 91%, the percent of parent [2] was 97% and the percent of parent [3] was 62%. For the same substance, the percent of parent [4] was 13%.

For “B.YU2gp120 core (ΔV1, V2, V3 loops) L405D”, the percent of parent [1] was 104%, the percent of parent [2] was 80% and the percent of parent [3] was 109%. The percent of parent [4] was 99%.

“B.YU2gp120 core (ΔV1, V2, V3 loops) D397F” gave a percent of parent [2] of 91%, a percent of parent [3] of 73% and a percent of parent [4] of 94%.

Work on “B.YU2gp120 core (ΔV1, V2, V3 loops) H216Y” yielded a percent of parent [1] of 96%, a percent of parent [2] of 108% and a percent of parent [3] of 104%. The percent of parent [4] was 99%.

“B.YU2gp120 core (ΔV1, V2, V3 loops) E269G” showed a percent of parent [1] of 83%, a percent of parent [2] of 95% and a percent of parent [3] of 82%. It also gave a percent of parent [4] of 75%.
